According to patent US6998116 (Genentech, dated 2006):

Biological target: the molecule itself
Test: self-association: chemical crosslinking (sulfo-NHS/EDC), SDS-PAGE and silver staining
Description: Minor 48 kDa and 66 kDa bands were also observed, and probably represent soluble Apo-2 ligand homodimers and homotrimers. Chemical crosslinking of the purified $His10$-Apo-2 ligand by incubation with sulfo-NHS (5 mM) (Pierce Chemical) and EDC (Pierce Chemical) at 25 mM and 50 mM (FIG. 1D, lanes 1 and 2, respectively), shifted the protein into the 66 kDa band primarily.

B1: His10-Apo-2 ligand (purified soluble Apo-2 ligand residues 114-281 with N-terminal Met Gly His10 tag and enterokinase site) (ligand)
chain: MGHHHHHHHHHHSSGHIDDDDKHMVRERGPQRVAAHITGTRGRSNTLSSPNSKNEKALGRKINSWESSRSGHSFLSNLHLRNGELVIHEKGFYYIYSQTYFRFQEEIKENTKNDKQMVQYIYKYTSYPDPILLMKSARNSCWSKDAEYGLYSIYQGGIFELKENDRIFVSVTNEHLIDMDHEASFFGAFLVG
notes: Made in baculovirus-infected Sf9 cells, purified on Ni2+-NTA; also called His10-Apo-2 ECD
binding result: binds
